# Data taken from the supplement of paper PMC9112550, “Optimization of the antimicrobial peptide Bac7 by deep mutational scanning” (BMC Biology, 2022).
# Test system: Escherichia coli TOP10
# Test: shrunken log2 fold change of peptide-encoding DNA abundance (4.5 h post-induction vs induction); higher = less antimicrobial activity (less host growth inhibition)
# Details: time post-induction: 4.5 h; library: site-saturation at positions 5, 18, 19, 20
# 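Further: peptides expressed intracellularly from a pBAD plasmid library in pooled LB shake-flask culture, induced with 0.3% L-arabinose, DNA abundance read by NGS, three biological replicates, DESeq2 with apeglm shrinkage.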
row,Sequence,shrunken log2 fold change
1,RRIRRRPPRLPRPRPRPNCMPRP,0.0934
2,RRIRFRPPRLPRPRPRPVSRPRP,-0.145
3,RRIRIRPPRLPRPRPRPYGSPRP,-0.126
4,RRIRLRPPRLPRPRPRPLVEPRP,0.222
5,RRIRCRPPRLPRPRPRPVLQPRP,1.24
6,RRIRPRPPRLPRPRPRPSAKPRP,0.528
7,RRIRFRPPRLPRPRPRPDLDPRP,-0.0913
8,RRIRCRPPRLPRPRPRPYFMPRP,-0.91
9,RRIRERPPRLPRPRPRPKHYPRP,-0.373
10,RRIRNRPPRLPRPRPRPEDAPRP,-0.00133
11,RRIRTRPPRLPRPRPRPCWKPRP,-0.0202
12,RRIRVRPPRLPRPRPRPGNPPRP,-0.104
13,RRIRMRPPRLPRPRPRPGACPRP,0.73
14,RRIRSRPPRLPRPRPRPPNWPRP,0.504
15,RRIRIRPPRLPRPRPRPNWLPRP,-0.0339
16,RRIRNRPPRLPRPRPRPEDVPRP,-0.0153
17,RRIRTRPPRLPRPRPRPVNNPRP,-0.0819
18,RRIRWRPPRLPRPRPRPTLGPRP,0.079
19,RRIRIRPPRLPRPRPRPSAVPRP,-0.306
20,RRIRVRPPRLPRPRPRPLTKPRP,0.044
21,RRIRCRPPRLPRPRPRPFMMPRP,-0.266
22,RRIRMRPPRLPRPRPRPYFTPRP,-0.362

row,Sequence,shrunken log2 fold change
1,RRIRDRPPRLPRPRPRPYQNPRP,-0.288
2,RRIRLRPPRLPRPRPRPFKSPRP,-0.209
3,RRIRWRPPRLPRPRPRPYVMPRP,-0.511
4,RRIRPRPPRLPRPRPRPIYKPRP,-0.333
5,RRIRARPPRLPRPRPRPANQPRP,0.0465
6,RRIRQRPPRLPRPRPRPDNPPRP,-0.0388
7,RRIRSRPPRLPRPRPRPDEQPRP,0.202
8,RRIRQRPPRLPRPRPRPVTWPRP,-0.073
9,RRIRHRPPRLPRPRPRPDSRPRP,-0.00136
10,RRIRCRPPRLPRPRPRPCHLPRP,-0.206
11,RRIRDRPPRLPRPRPRPMFLPRP,0.0737
12,RRIRWRPPRLPRPRPRPNFIPRP,-0.174
13,RRIRCRPPRLPRPRPRPIEFPRP,0.191
14,RRIRERPPRLPRPRPRPEWQPRP,-0.0536
15,RRIRKRPPRLPRPRPRPKPLPRP,0.687
16,RRIRDRPPRLPRPRPRPARIPRP,0.136
17,RRIRGRPPRLPRPRPRPCNCPRP,0.155
18,RRIRRRPPRLPRPRPRPAQRPRP,0.414
19,RRIRDRPPRLPRPRPRPVKEPRP,-0.0586
20,RRIRWRPPRLPRPRPRPEHAPRP,0.921
21,RRIRLRPPRLPRPRPRPSIFPRP,-0.709
22,RRIRDRPPRLPRPRPRPMTCPRP,0.0184

row,Sequence,shrunken log2 fold change
1,RRIRCRPPRLPRPRPRPNHGPRP,-0.746
2,RRIRHRPPRLPRPRPRPRVDPRP,0.0681
3,RRIRTRPPRLPRPRPRPYQRPRP,-0.0311
4,RRIRERPPRLPRPRPRPTYMPRP,-0.121
5,RRIRDRPPRLPRPRPRPTCHPRP,0.0627
6,RRIRFRPPRLPRPRPRPNHQPRP,-0.736
7,RRIRWRPPRLPRPRPRPVDWPRP,2.21
8,RRIRARPPRLPRPRPRPLLRPRP,0.103
9,RRIRRRPPRLPRPRPRPKYYPRP,-0.199
10,RRIRERPPRLPRPRPRPWKTPRP,0.0324
11,RRIRLRPPRLPRPRPRPWGYPRP,-0.359
12,RRIRSRPPRLPRPRPRPPYQPRP,0.144
13,RRIRMRPPRLPRPRPRPYWSPRP,-0.186
14,RRIRKRPPRLPRPRPRPHFAPRP,0.336
15,RRIRLRPPRLPRPRPRPIECPRP,0.0614
16,RRIRFRPPRLPRPRPRPLYDPRP,-0.358
17,RRIRIRPPRLPRPRPRPHMIPRP,-0.602
18,RRIRNRPPRLPRPRPRPHRSPRP,0.283
19,RRIRLRPPRLPRPRPRPICGPRP,-0.0025
20,RRIRHRPPRLPRPRPRPQLTPRP,-0.261
21,RRIRERPPRLPRPRPRPNHGPRP,-0.348
22,RRIRGRPPRLPRPRPRPERPPRP,1.28

row,Sequence,shrunken log2 fold change
1,RRIRVRPPRLPRPRPRPWCKPRP,0.0335
2,RRIRFRPPRLPRPRPRPIVVPRP,-0.0214
3,RRIRTRPPRLPRPRPRPRLIPRP,-0.113
4,RRIRVRPPRLPRPRPRPDVTPRP,-0.0394
5,RRIRKRPPRLPRPRPRPMGCPRP,0.408
6,RRIRTRPPRLPRPRPRPPKFPRP,-0.025
7,RRIRPRPPRLPRPRPRPIYLPRP,-0.379
8,RRIRLRPPRLPRPRPRPGLCPRP,0.234
9,RRIRVRPPRLPRPRPRPGVEPRP,0.243
10,RRIRQRPPRLPRPRPRPQVKPRP,-0.101
11,RRIRTRPPRLPRPRPRPPDQPRP,0.601
12,RRIRWRPPRLPRPRPRPIHWPRP,0.202
13,RRIRERPPRLPRPRPRPMTEPRP,-0.116
14,RRIRHRPPRLPRPRPRPEWQPRP,0.145
15,RRIRARPPRLPRPRPRPDVDPRP,1.1
16,RRIRDRPPRLPRPRPRPEYYPRP,-0.00627
17,RRIRVRPPRLPRPRPRPNMMPRP,-0.248
18,RRIRLRPPRLPRPRPRPTWVPRP,0.0425
19,RRIRGRPPRLPRPRPRPSLIPRP,0.211
20,RRIRSRPPRLPRPRPRPTDSPRP,-0.0593
21,RRIRQRPPRLPRPRPRPFRGPRP,0.113
22,RRIRCRPPRLPRPRPRPKRRPRP,0.0984

row,Sequence,shrunken log2 fold change
1,RRIRHRPPRLPRPRPRPKDKPRP,-0.23
2,RRIRIRPPRLPRPRPRPWNHPRP,0.0112
3,RRIRWRPPRLPRPRPRPVMFPRP,-0.0114
4,RRIRWRPPRLPRPRPRPEVIPRP,0.0286
5,RRIRERPPRLPRPRPRPLYIPRP,-0.668
6,RRIRLRPPRLPRPRPRPIYDPRP,-1
7,RRIRTRPPRLPRPRPRPKFEPRP,0.0721
8,RRIRWRPPRLPRPRPRPQKKPRP,0.0854
9,RRIRCRPPRLPRPRPRPAAEPRP,0.829
10,RRIRDRPPRLPRPRPRPIHEPRP,-0.0852
11,RRIRRRPPRLPRPRPRPQFRPRP,-0.165
12,RRIRRRPPRLPRPRPRPPDTPRP,0.436
13,RRIRNRPPRLPRPRPRPWVMPRP,-0.00783
14,RRIRGRPPRLPRPRPRPCPYPRP,0.0633
15,RRIRIRPPRLPRPRPRPHAYPRP,-0.549
16,RRIRQRPPRLPRPRPRPNRTPRP,0.0639
17,RRIRQRPPRLPRPRPRPMTAPRP,0.291
18,RRIRDRPPRLPRPRPRPTQAPRP,0.017
19,RRIRVRPPRLPRPRPRPMTYPRP,-0.494
20,RRIRVRPPRLPRPRPRPQDAPRP,-0.443
21,RRIRHRPPRLPRPRPRPVYTPRP,-0.206
